Values joined by “and” are separate entries in the source; they are usually repeats but may differ in a detail not shown here. Equal entries are not always repeated.
B1: Azurin, P00282 (parent)
chain: MLRKLAAVSLLSLLSAPLLAAECSVDIQGNDQMQFNTNAITVDKSCKQFTVNLSHPGNLPKNVMGHNWVLSTAADMQGVVTDGMASGLDKDYLKPDDSRVIAHTKLIGSGEKDSVTFDVSKLKEGEQYMFFCTFPGHSALMKGTLTLK

Variants of: B1
Conditions: Pseudomonas aeruginosa (strain ATCC 15692 / DSM 22644 / CIP 104116 / JCM 14847 / LMG 12228 / 1C / PRS 101 / PAO1); pH 7.5; 20 °C; GdnHCl; Fluorescence; Tris 30 mM; reversible: Yes; structure 5AZU; whole UniProt chain shown

| Variant | ddG of mutation (higher = less stable) | denaturant m value | denaturant midpoint (higher = more stable) | unfolding free energy |
| --- | --- | --- | --- | --- |
| C132S | -1.57 kcal/mol and -2.09 kcal/mol and -0.96 kcal/mol | 5.21 kcal/mol/M and 5.82 kcal/mol/M and 4.73 kcal/mol/M | 2.09 M and 1.85 M and 2.17 M | 10.9 kcal/mol and 11.4 kcal/mol and 10.3 kcal/mol |

Same assay, conditions: Pseudomonas aeruginosa (strain ATCC 15692 / DSM 22644 / CIP 104116 / JCM 14847 / LMG 12228 / 1C / PRS 101 / PAO1); pH 7.5; -15 °C; GdnHCl; Fluorescence; Tris 30 mM; NaCl 5.0 M; reversible: Yes; structure 5AZU; whole UniProt chain shown

| Variant | denaturant m value | denaturant midpoint (higher = more stable) | unfolding free energy |
| --- | --- | --- | --- |
| C132S | 6.69 kcal/mol/M and 6.81 kcal/mol/M and 5.02 kcal/mol/M | 1.35 M and 1.38 M and 1.4 M | 9.05 kcal/mol and 9.4 kcal/mol and 7.01 kcal/mol |

Reference: FireProtDB (doi:10.1021/bi702473g)
